# Laboratory results reported in IntAct's records for PubMed 19805276.
# B1: Stage IV sporulation protein FB (Bacillus subtilis), P26937 (parent)
# chain: MNKWLDLILKIHVHPFLWIIAALGLLTGHMKALLCLLLIVLIHELGHAALAVFFSWRIKRVFLLPFGGTVEVEEHGNRPLKEEFAVIIAGPLQHIWLQFAAWMLAEVSVIHQHTFELFTFYNLSILFVNLLPIWPLDGGKLLFLLFSKQLPFQKAHRLNLKTSLCFCLLLGCWVLFVIPLQISAWVLFVFLAVSLFEEYRQRHYIHVRFLLERYYGKNRELEKLLPLTVKAEDKVYHVMAEFKRGCKHPIIIEKSGQKLSQLDENEVLHAYFADKRTNSSMEELLLPY
# partner: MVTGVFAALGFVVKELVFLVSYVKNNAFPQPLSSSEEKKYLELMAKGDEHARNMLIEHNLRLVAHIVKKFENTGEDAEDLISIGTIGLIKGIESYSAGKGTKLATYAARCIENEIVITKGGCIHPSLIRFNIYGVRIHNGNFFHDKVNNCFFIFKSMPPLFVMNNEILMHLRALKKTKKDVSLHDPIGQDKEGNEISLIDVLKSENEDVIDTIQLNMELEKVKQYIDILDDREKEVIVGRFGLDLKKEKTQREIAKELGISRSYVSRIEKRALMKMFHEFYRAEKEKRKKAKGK
# Variants of: B1
# Settings: with rpsk_bacsu sigK
row,effect of a mutation on the interaction,Variant
1,disrupting interaction,MNKWLDLILKIHVHPFLWIIAALGLLTGHMKALLCLLLIVLIHQLGHAALAVFFSWRIKRVFLLPFGGTVEVEEHGNRPLKEEFAVIIAGPLQHIWLQFAAWMLAEVSVIHQHTFELFTFYNLSILFVNLLPIWPLDGGKLLFLLFSKQLPFQKAHRLNLKTSLCFCLLLGCWVLFVIPLQISAWVLFVFLAVSLFEEYRQRHYIHVRFLLERYYGKNRELEKLLPLTVKAEDKVYHVMAEFKRGCKHPIIIEKSGQKLSQLDENEVLHAYFADKRTNSSMEELLLPY [E44Q]
